Data as given in US20040072256A1.

Experiments:
[1] = biological target: hemagglutinin-neuraminidase (HN) glycoprotein of Sendai virus (Sendai virus); test: flow cytometry on SV-infected 721.221 cells pre-incubated with competitor TC-9A1 (anti-F)
[2] = biological target: hemagglutinin-neuraminidase (HN) glycoprotein of Sendai virus (Sendai virus); test: flow cytometry on SV-infected 721.221 cells pre-incubated with competitor 135.7 (anti-HN)
[3] = biological target: hemagglutinin-neuraminidase (HN) glycoprotein of Sendai virus (Sendai virus); test: flow cytometry on SV-infected 721.221 cells pre-incubated with competitor TC-9C1 (anti-HN)
[4] = biological target: hemagglutinin (HA) of Influenza virus A/PR/8/34 (H1N1) (Influenza virus A/PR/8/34 (H1N1)) (UniProt P03452); test: cell-based or functional assay
[5] = biological target: hemagglutinin-neuraminidase (HN) glycoprotein of Sendai virus (Sendai virus); test: flow cytometry on SV-infected 721.221 cells pre-incubated with competitor TC-1D6 (anti-HN)
[6] = biological target: hemagglutinin (HA) of Influenza virus A/PR/8/34 (H1N1) (Influenza virus A/PR/8/34 (H1N1)) (UniProt P03452); test: flow cytometry, IV-infected vs uninfected 1106mel cells
[7] = biological target: hemagglutinin-neuraminidase (HN) glycoprotein of Sendai virus (Sendai virus); test: flow cytometry, SV-infected vs uninfected 721.221 cells
[8] = biological target: hemagglutinin (HA) of Influenza virus A/PR/8/34 (H1N1) (Influenza virus A/PR/8/34 (H1N1)) (UniProt P03452); test: flow cytometry on IV-infected 1106mel cells, no mAb
[9] = biological target: hemagglutinin-neuraminidase (HN) glycoprotein of Sendai virus (Sendai virus); test: flow cytometry, 293T cells transfected with Sendai HN cDNA vs mock
[10] = biological target: hemagglutinin-neuraminidase (HN) glycoprotein of Sendai virus (Sendai virus); test: flow cytometry on SV-infected 721.221 cells, no mAb
[11] = biological target: hemagglutinin (HA) of Influenza virus A/PR/8/34 (H1N1) (Influenza virus A/PR/8/34 (H1N1)) (UniProt P03452); test: flow cytometry on IV-infected 1106mel cells pre-incubated with NA2-1C1 (anti-NA, blocks neuraminidase activity)
[12] = biological target: hemagglutinin (HA) of Influenza virus A/PR/8/34 (H1N1) (Influenza virus A/PR/8/34 (H1N1)) (UniProt P03452); test: flow cytometry on IV-infected 1106mel cells pre-incubated with competitor H17-L2 (anti-HA)
[13] = biological target: hemagglutinin (HA) of Influenza virus A/PR/8/34 (H1N1) (Influenza virus A/PR/8/34 (H1N1)) (UniProt P03452); test: flow cytometry on IV-infected 1106mel cells pre-incubated with competitor H28-E23 (anti-HA)
[14] = biological target: hemagglutinin-neuraminidase (HN) glycoprotein of Sendai virus (Sendai virus); test: cell-based or functional assay

| Substance | MFI NKp46-Ig binding [1] | MFI NKp46-Ig binding [2] | MFI NKp46-Ig binding [3] | hemagglutination inhibition (IV-mediated agglutination of sheep erythrocytes) [4] | MFI NKp46-Ig binding [5] | fold increase in binding on IV infection [6] | fold increase in staining on SV infection [7] | MFI NKp46-Ig binding [8] | fold increase in staining on HN transfection [9] | MFI NKp46-Ig binding [10] | MFI NKp46-Ig binding [11] | MFI NKp46-Ig binding [12] | MFI NKp46-Ig binding [13] | lysis of HN-transfected 293T cells by NK line NK-GAL (35S-release) [14] |
| --- | --- | --- | --- | --- | --- | --- | --- | --- | --- | --- | --- | --- | --- | --- |
| NKp46-Ig fusion protein (Fc fusion) | 63 MFI | 22 MFI | 18 MFI | 2 µM | 14 MFI | 4 fold | 10 fold | 441 MFI | 2 fold | 74 MFI | 980 MFI | 145 MFI | 63 MFI | – |
| NKp46 receptor on NK cells (from UniProt O76036 22-304) | – | – | – | – | – | – | – | – | – | – | – | – | – | > 4 fold |
